# Measurements reported in patent US6740739B1, “Substitutional variants of APO-2 ligand” (Genentech, Inc., priority 1998, dated 2004).
# How the values were obtained:
# B lymphocytes = experiment: Apoptosis by FACS in peripheral blood B cells; type: cell-based, human; details: Apo-2 ligand 3 μg/ml, 3 days, mean ±SE
# Description: Peripheral blood mononuclear cells (“PBMC&”) were isolated from the blood of human donors by Ficoll density gradient centrifugation using Lymphocyte Separation Medium (LSM®, Organon Teknika). An isolated population of T cells was prepared from the PBMC by removal of B cells through surface Ig binding to an anti-Ig column and removal of monocytes through Fc receptor binding to an Ig column (R & D Systems). An isolated population of B cells was prepared from the PBMC by complement-mediatedelimination of T cells reacted with the anti-CD3 antibody produced by the OKT3 myeloma (ATCC, CRL 8001) and of monocytes reacted with a monocyte-specific antibody produced by the 4F2C13 hybridoma (ATCC, HB 22). Additional monocyte removal was accomplished by adherence to plastic.
# The freshly isolated peripheral blood B or T cells (1×10^6 cells/well) were cultured for 3 days in the presence of a media control or Apo-2 ligand (3 μg/ml, prepared as described in Example 3). […] Apoptosis was determined using FACS analysis essentially as described above in Example 4. […] The results are shown in Table 2 below, representing means ±SE of independent experiments [B lymphocytes—9 experiments; T lymphocytes—8 experiments; T lymphocytes plus IL-2-5 experiments], in which 50,000 cells were analyzed per data point. […]
# HeLa = experiment: Cell viability by crystal violet staining; type: cell-based, human
# Description: (§1) The following human tumor cell lines were assayed: A549 (lung carcinoma, ATCC CCL 185); HCT116 (colon carcinoma, ATCC CCL 247); SW480 (colon adenocarcinoma, ATCC CCL 228); MDA231 (breast adenocarcinoma, ATCC HTB 26); HeLa (cervical carcinoma, ATCC CCL 22); ME-180 (cervical carcinoma, ATCC HTB 33); T24 (bladder carcinoma. ATCC HTB 4); SK-N-AS (neuroblastoma, White et al., Proc. Natl. Acad. Sci., 92:5520-5524 (1995)). The cells were plated at 2.5×10^5 cells/ml in 96 well plates and incubated overnight. The cells were cultured in the presence of 2-fold dilutions of Apo-2 ligand (ranging from 100 ng/ml to 0.01 ng/ml). In some of the cultures, a chemotherapeuticagent was also added for 24 hours-cyclohexamide (“CHX”) (50 μg/ml; Sigma Chemicals), Doxorubicin (10-100 μg/ml; Pharmacia), or 5-FU (6 mg/ml; Roche).
# (§2) After 24 hours of incubation, the cells were stained with 0.5% crystal-violetin 20% methanol. Cell viability was determined by eluting the dye from the stained cells with 0.1M sodium citrate (0.1M citric acid in 50% methanol), and measuring absorbance at 540 nm.
# SK-N-AS = experiment: Cell viability by crystal violet staining; type: cell-based, human; details: SK-N-AS neuroblastoma, p53 ?; 24 h
# Description: as §1, §2
# [1] = Examination of infused animals for gross toxicity; type: in vivo, nude mice; details: E. coli-expressed Apo-2 ligand 10 mg/kg each day by mini-pump; Day 3
# Description: In the experiment, the nude mice were injected subcutaneously with HCT116 human colon carcinoma cells (ATCC CCL 247) (1×10^6 cells) on each side of the animal. The tumors were then allowed to grow to reach approximately 1 cm diameter (approximately 10 days). On Day 0, the tumor volume was measured with calipers. Volume was calculated as π/6×ab^2, where a=length and b=width. Then osmotic mini-pumps (available from Alza Corp., Model 1003) were implanted intraperitoncally into each animal. The mini-pumps were loaded with either (1) control vehicle (20 mM Tris pH 7.5, 8% Trehalose. 0.01% Tween-20) or (2) Apo-2 ligand. Five animals in each group received either the control vehicle or Apo-2 ligand. The mini-pumps were calibrated to deliver each day 10 mg/kg Apo-2 ligand (10 mg/ml×2 μl/hour) or 2 μl/hour control vehicle.
# On Day 3, the tumor volume was again measured, and the animals were sacrificed. […] There was no change in tumor volume in the vehicle group, but a marked reduction in tumor size occurred in mice infused with the Apo-2L. The treatment with the Apo-2L shrunk the tumors by about 50% over 3 days.
# Jurkat cells = experiment: Apoptosis by FACS (PI / FITC-annexin V); type: cell-based, human; details: Apo-2 ligand 3 μg/ml, 24 hours, control 5.9
# Description: (§3) The effects of the Apo-2 ligand on the 9D cells, as well as on Raji cells (human Burkitt's lymphoma B cell line, ATCC CCL 86) and Jurkat cells (human acute T cell leukemia cell line, ATCC TIB 152) were further analyzed by FACS. The FACS analysis was conducted, using established criteria for apoptotic cell death, namely, the relation of fluorescence staining of the cells with two markers: (a) propidium iodide (“PI”) dye, which stains apoptotic but not live cells, and (b) a fluorescent derivative of the protein, annexin V, which binds to the exposed phosphatidylserine found on the surface of apoptotic cells, but not on live cells [Darzynkiewicz et al., Methods in Cell Biol., 41:15-38 (1994); Fadok et al., J. Immunol., 148:2207-2216 (1992); Koopman et al., Blood, 84:1415-1420 (1994)].
# (§4) The 9D cells (FIG. 2B), Raji cells (FIG. 2C), and Jurkat cells (FIG. 2D) were incubated (1×10^6 cells/well) for 24 hours with a media control (left panels), Apo-2 ligand (3 μg/ml, prepared as described in Example 3) (center panels), or anti-Apo-1 ligand antibody, CH11 (1 μg/ml) (right panels). The cells were then washed, stained with PI and with fluorescein thiocyanate (FITC)-conjugatedannexin V (purchased from Brand Applications) and analyzed by flow cytometry. […]
# Raji cells = experiment: Apoptosis by FACS (PI / FITC-annexin V); type: cell-based, human; details: Apo-2 ligand 3 μg/ml, 24 hours, control 35.9
# Description: as §3, §4
molecule,measurement,setting,value
"Apo-2L: purified soluble His10-tagged human Apo-2 ligand, residues 114-281, from baculovirus-infected Sf9 cells (Example 3); used in Examples 4-14 (protein) MGHHHHHHHHHHSSGHIDDDDKHMVRERGPQRVAAHITGTRGRSNTLSSPNSKNEKALGRKINSWESSRSGHSFLSNLHLRNGELVIHEKGFYYIYSQTYFRFQEEIKENTKNDKQMVQYIYKYTSYPDPILLMKSARNSCWSKDAEYGLYSIYQGGIFELKENDRIFVSVTNEHLIDMDHEASFFGAFLVG",% apoptolic cells,"B lymphocytes; LPS 1 μg/ml, control 44.8 ± 2.8, a=p<0.05",55.9 ± 3.2^a %
same,% apoptolic cells,"B lymphocytes; treatment none, control 40.1 ± 4.1, a=p<0.05",53.2 ± 3.3^a %
same,Apo-2L SENSITIVITY,"HeLa; HeLa cervical carcinoma, p53 mut, 24 h",+ (>35% death after 24 h with 100 ng/ml Apo-2)
same,Apo-2L sensitivity ENHANCED BY CHX,"HeLa; HeLa, cyclohexamide 50 μg/ml, 24 hours",yes
same,Apo-2L SENSITIVITY,SK-N-AS,+ (>35% death after 24 h with 100 ng/ml Apo-2)
same,gross evidence of toxicity,[1],did not reveal any gross evidence of toxicity
same,% apoptotic cells,Jurkat cells,77.0%
same,% apoptotic cells,Raji cells,73.4%
